We go through two molecules from paper PMC8093899 (iScience, 2021).

The term stoichiometry N denotes a count of units in the complex or per binding partner.

The data set “SEC” deals with the molecule itself. The data set is described as follows: SEC. For orientation: SEC sorts molecules by how far they enter the pores of the column.
Data set [1] deals with full-length CD146, wild type, with a FLAG tag or a Myc tag (human, UniProt P43121). The experiment in a line: co-IP.
full-length CD146, wild type, with a FLAG tag or a Myc tag, sequence (P43121 24-646): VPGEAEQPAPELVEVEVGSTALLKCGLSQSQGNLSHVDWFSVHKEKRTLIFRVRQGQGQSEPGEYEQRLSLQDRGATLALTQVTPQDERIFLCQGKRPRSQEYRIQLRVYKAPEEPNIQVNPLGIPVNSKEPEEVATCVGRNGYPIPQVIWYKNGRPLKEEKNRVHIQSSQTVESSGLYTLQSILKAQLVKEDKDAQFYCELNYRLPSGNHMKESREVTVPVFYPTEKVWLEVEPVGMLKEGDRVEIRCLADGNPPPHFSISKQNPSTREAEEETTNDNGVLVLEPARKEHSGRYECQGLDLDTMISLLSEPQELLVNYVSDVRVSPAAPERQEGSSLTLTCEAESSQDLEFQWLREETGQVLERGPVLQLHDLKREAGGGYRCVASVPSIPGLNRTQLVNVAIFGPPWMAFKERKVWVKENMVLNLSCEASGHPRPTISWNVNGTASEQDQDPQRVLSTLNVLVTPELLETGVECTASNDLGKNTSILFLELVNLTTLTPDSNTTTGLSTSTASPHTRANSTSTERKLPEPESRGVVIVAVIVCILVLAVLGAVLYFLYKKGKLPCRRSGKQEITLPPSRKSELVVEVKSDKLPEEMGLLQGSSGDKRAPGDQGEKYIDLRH

B1: human CD146 fragment containing domain 4 and domain 5 (D4-D5, Gln336 to Leu519) (domain or fragment, UniProt P43121 336-519, looked up)
chain: QELLVNYVSDVRVSPAAPERQEGSSLTLTCEAESSQDLEFQWLREETGQVLERGPVLQLHDLKREAGGGYRCVASVPSIPGLNRTQLVNVAIFGPPWMAFKERKVWVKENMVLNLSCEASGHPRPTISWNVNGTASEQDQDPQRVLSTLNVLVTPELLETGVECTASNDLGKNTSILFLELVNL
modifications: two N-glycosylation sites on D4 and D5 seen in the electron density map
As to B1, the “stoichiometry N” value in the data set “SEC” was 2.

B2: HA98 (AA98 mAb mutant H13–112: heavy chain (I28K)/light chain (L51Y)) (antibody, V domains shown)
VH: EVQLLESGAELVRPGASVKLSCKTSGYKFTNYWIHWVKQRSGQGLEWIARIYPGTDITYYNEKFKGKATLTVDKSSSSAYMLLSSLKSEDSSVYFCARSGGYWYFDVWGAGTTVTVSS
VL: ELVMTQSPASLAVSLGQRATISCRASKSVSISGYSYMHWYQQKPGQPPKLYIYLASNLESGVPARFSGSGSGTDFTLNIHPVEEEDAATYYCQHSRELPYTFGGGTKLEIK
For the molecule B2, the binding result in data set [1] was “binds”.
